target: T1, His-ClpX (M. tuberculosis ClpX, pRD21) (M. tuberculosis, UniProt P9WPB9 1-426); assay: pull-down; conditions: both partners purified
T1 construct: also called his-clpXTB; recombinant His-ClpX fusion protein
T1 sequence (P9WPB9 whole entry, the tested form may be a part): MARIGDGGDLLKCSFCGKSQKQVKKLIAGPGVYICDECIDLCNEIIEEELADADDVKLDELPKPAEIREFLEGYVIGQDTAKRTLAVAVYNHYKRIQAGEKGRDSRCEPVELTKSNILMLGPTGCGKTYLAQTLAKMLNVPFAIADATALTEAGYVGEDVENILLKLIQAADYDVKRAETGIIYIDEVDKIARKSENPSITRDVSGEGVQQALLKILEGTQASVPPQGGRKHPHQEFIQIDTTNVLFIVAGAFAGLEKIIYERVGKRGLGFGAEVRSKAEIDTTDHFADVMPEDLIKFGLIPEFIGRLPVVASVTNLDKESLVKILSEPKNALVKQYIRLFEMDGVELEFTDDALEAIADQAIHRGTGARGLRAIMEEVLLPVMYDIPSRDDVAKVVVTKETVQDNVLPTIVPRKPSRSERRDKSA

Row | Binder | binding result
1 | tag-free FtsZ (M. tuberculosis FtsZ, polyhistidine tag cleaved with thrombin) (natural protein, also called FtsZTB) MTPPHNYLAVIKVVGIGGGGVNAVNRMIEQGLKGVEFIAINTDAQALLMSDADVKLDVGRDSTRGLGAGADPEVGRKAAEDAKDEIEELLRGADMVFVTAGEGGGTGTGGAPVVASIARKLGALTVGVVTRPFSFEGKRRSNQAENGIAALRESCDTLIVIPNDRLLQMGDAAVSLMDAFRSADEVLLNGVQGITDLITTPGLINVDFADVKGIMSGAGTALMGIGSARGEGRSLKAAEIAINSPLLEASMEGAQGVLMSIAGGSDLGLFEINEAASLVQDAAHPDANIIFGTVIDDSLGDEVRVTVIAAGFDVSGPGRKPVMGETGGAHRIESAKAGKLTSTLFEPVDAVSVPLHTNGATLSIGGDDDDVDVPPFMRR | binds
2 | FtsZ G103S, tag-free (pRR3) (natural protein) MTPPHNYLAVIKVVGIGGGGVNAVNRMIEQGLKGVEFIAINTDAQALLMSDADVKLDVGRDSTRGLGAGADPEVGRKAAEDAKDEIEELLRGADMVFVTAGESGGTGTGGAPVVASIARKLGALTVGVVTRPFSFEGKRRSNQAENGIAALRESCDTLIVIPNDRLLQMGDAAVSLMDAFRSADEVLLNGVQGITDLITTPGLINVDFADVKGIMSGAGTALMGIGSARGEGRSLKAAEIAINSPLLEASMEGAQGVLMSIAGGSDLGLFEINEAASLVQDAAHPDANIIFGTVIDDSLGDEVRVTVIAAGFDVSGPGRKPVMGETGGAHRIESAKAGKLTSTLFEPVDAVSVPLHTNGATLSIGGDDDDVDVPPFMRR | binds
3 | FtsZ D210G, tag-free (pRR7) (natural protein) MTPPHNYLAVIKVVGIGGGGVNAVNRMIEQGLKGVEFIAINTDAQALLMSDADVKLDVGRDSTRGLGAGADPEVGRKAAEDAKDEIEELLRGADMVFVTAGEGGGTGTGGAPVVASIARKLGALTVGVVTRPFSFEGKRRSNQAENGIAALRESCDTLIVIPNDRLLQMGDAAVSLMDAFRSADEVLLNGVQGITDLITTPGLINVDFAGVKGIMSGAGTALMGIGSARGEGRSLKAAEIAINSPLLEASMEGAQGVLMSIAGGSDLGLFEINEAASLVQDAAHPDANIIFGTVIDDSLGDEVRVTVIAAGFDVSGPGRKPVMGETGGAHRIESAKAGKLTSTLFEPVDAVSVPLHTNGATLSIGGDDDDVDVPPFMRR | binds

Reference: publication PMC2897852 (PLoS ONE, 2010)
